These results are taken from patent publication US20210277125A1 (University of California, published 2021).

The target of assay [1] is T1, recombinant αvβ8 ectodomain (UniProt P06756 31-992; P26012 43-684, limits assumed).
T1 construct: extracellular domain; the ELISA and the reporter assays say only 'recombinant αvβ8'; also called recombinant integrin αvβ8; immobilized αvβ8
The assay can be described thus: kinetic exclusion assay (KinExA). As to the method:
Affinity for the antibodies described in the Examples was determined using a kinetic exclusion assay format. KinExA (https://www.sapidyne.com). The affinity was calculated as follows: […]

Assay [2] has as its target T2, integrin αvβ8 on human ovarian carcinoma line OVCAR3 (human, UniProt P06756 31-1048; P26012 43-769).
T2 construct: whole, on cells; also called OVCAR3 cells
The assay can be described thus: flow cytometry on OVCAR3 cells, 15 min at 4 °C, detection with anti-mouse-PE, MFI against antibody concentration, KaleidaGraph fit. As for the experimental part:
(§1) ELISA plates were coated with antibodies (2 μg/ml), washed, blocked with BSA, and then recombinant integrins were added at the indicated concentrations. After a brief incubation at RT, wells were washed and bound integrin detected with biotin conjugated anti-αv (8B8-biotin, 1 μg/ml) followed by Streptavidin-HRP. […] Antibodies were incubated at the indicated concentrations for 15 min at 4° C. and after washing detected with anti-mouse-PE.

In assay [3] the target is recombinant integrin αvβ5 (UniProt P06756 31-992; P18084 24-719). The assay can be described thus: ELISA: plate coated with antibody (2 µg/ml), recombinant integrin added, detected with 8B8-biotin and Streptavidin-HRP. As to the method:
as §1

Assay [4] concerns the target recombinant integrin αvβ1 (UniProt P06756 31-992; P05556 21-728). The description is as above. As to the method: as §1
For assay [5], the target named is recombinant integrin αvβ3 (UniProt P06756 31-992; P05106 27-718). The description is as above. As to the method:
as §1

In assay [6] the target is T3, recombinant integrin αvβ6 (UniProt P06756 31-992; P18564 22-707, limits assumed). The description is as above. As to the method:
as §1

The target of assay [7] is T1, recombinant αvβ8 ectodomain. Briefly: sandwich ELISA: antibody coated at 2 µg/ml, recombinant integrin titrated, bound integrin detected with anti-αv 8B8-biotin and streptavidin-HRP. As to the method:
ELISA plates were coated with antibodies (2 μg/ml), washed, blocked with BSA, and then recombinant integrins were added at the indicated concentrations. After a brief incubation at RT, wells were washed and bound integrin detected with biotin conjugated anti-αv (8B8-biotin, 1 μg/ml) followed by Streptavidin-HRP.

Assay [8] has as its target T2, integrin αvβ8 on human ovarian …. Briefly: competition flow cytometry on OVCAR3 cells: fixed ADWA11 2.4 (chimeric, murine IgG2a CH2/CH3) with titrated fully human C6D4 F12, 15 min at 4 °C, ADWA11 2.4 detected with anti-mouse (H+L) PE. As to the method:
(§2) All antibodies were produced in CHO cells. […] Primary […] were incubated at 4° C. for 15 min.

Assay [9] has as its target T3, recombinant integrin αvβ6. The assay can be described thus: ELISA on coated integrin (1 µg/ml), antibody binding read as A450; antibody concentration not given.
For assay [10], the target named is T2, integrin αvβ8 on human ovarian …. Briefly: flow cytometry on OVCAR3 cells, 15 min at 4 °C, detection with anti-mouse (H+L)-PE, MFI against nM antibody. As to the method:
as §2

The target in assay [11] is T1, recombinant αvβ8 ectodomain. The assay can be described thus: cell-based or functional assay.
The target is the same in assay [12]. The assay can be described thus: cell-based or functional assay. This is another data set of the same source.

T2 sequence (P06756 31-1048, chain 1 of 2): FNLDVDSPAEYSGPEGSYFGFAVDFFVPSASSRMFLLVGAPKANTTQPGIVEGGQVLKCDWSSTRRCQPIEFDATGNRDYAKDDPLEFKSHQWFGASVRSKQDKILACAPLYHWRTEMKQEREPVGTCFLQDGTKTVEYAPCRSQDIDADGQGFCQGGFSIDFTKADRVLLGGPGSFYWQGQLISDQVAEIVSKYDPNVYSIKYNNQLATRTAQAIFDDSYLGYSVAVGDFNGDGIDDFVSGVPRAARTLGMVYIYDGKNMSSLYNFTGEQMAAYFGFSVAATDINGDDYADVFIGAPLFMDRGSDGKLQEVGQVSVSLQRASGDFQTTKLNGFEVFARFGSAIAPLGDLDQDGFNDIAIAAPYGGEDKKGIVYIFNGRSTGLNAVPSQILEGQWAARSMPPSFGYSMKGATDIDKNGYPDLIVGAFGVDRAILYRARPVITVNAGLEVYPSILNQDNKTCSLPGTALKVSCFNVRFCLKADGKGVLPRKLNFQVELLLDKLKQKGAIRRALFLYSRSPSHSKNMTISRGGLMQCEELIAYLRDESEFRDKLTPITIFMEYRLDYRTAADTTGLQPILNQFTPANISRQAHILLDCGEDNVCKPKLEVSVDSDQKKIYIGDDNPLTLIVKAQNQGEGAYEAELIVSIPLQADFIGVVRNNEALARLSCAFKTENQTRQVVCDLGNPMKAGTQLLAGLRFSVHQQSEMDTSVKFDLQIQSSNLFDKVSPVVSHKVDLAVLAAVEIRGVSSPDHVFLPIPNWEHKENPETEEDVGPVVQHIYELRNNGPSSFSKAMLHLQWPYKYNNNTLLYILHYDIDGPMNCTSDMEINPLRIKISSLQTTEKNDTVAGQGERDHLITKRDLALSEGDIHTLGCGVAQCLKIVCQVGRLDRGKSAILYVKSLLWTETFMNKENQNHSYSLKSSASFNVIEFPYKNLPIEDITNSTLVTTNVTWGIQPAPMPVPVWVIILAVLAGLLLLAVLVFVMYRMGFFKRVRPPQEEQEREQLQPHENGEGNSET
T2 sequence (P26012 43-769, chain 2 of 2): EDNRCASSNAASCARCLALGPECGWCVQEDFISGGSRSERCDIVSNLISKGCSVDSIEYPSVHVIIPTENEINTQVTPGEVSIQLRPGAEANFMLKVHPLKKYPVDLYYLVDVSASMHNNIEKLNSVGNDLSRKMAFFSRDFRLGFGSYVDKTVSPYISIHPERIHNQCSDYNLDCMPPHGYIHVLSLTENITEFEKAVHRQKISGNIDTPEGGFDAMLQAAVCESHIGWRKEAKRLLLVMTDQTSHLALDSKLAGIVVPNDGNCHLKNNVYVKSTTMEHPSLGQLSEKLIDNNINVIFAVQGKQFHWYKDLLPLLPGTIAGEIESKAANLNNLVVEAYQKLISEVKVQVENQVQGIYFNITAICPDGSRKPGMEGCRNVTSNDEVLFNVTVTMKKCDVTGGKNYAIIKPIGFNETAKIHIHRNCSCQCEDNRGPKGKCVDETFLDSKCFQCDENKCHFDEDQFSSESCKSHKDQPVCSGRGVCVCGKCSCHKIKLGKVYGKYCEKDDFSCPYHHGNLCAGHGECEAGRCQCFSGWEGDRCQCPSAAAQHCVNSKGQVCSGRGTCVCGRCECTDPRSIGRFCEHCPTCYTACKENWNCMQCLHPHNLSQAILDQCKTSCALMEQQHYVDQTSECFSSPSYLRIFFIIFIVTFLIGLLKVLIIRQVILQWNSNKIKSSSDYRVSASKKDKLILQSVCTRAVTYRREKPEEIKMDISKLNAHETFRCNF
T3 sequence (P06756 31-992 limits assumed, chain 1 of 2): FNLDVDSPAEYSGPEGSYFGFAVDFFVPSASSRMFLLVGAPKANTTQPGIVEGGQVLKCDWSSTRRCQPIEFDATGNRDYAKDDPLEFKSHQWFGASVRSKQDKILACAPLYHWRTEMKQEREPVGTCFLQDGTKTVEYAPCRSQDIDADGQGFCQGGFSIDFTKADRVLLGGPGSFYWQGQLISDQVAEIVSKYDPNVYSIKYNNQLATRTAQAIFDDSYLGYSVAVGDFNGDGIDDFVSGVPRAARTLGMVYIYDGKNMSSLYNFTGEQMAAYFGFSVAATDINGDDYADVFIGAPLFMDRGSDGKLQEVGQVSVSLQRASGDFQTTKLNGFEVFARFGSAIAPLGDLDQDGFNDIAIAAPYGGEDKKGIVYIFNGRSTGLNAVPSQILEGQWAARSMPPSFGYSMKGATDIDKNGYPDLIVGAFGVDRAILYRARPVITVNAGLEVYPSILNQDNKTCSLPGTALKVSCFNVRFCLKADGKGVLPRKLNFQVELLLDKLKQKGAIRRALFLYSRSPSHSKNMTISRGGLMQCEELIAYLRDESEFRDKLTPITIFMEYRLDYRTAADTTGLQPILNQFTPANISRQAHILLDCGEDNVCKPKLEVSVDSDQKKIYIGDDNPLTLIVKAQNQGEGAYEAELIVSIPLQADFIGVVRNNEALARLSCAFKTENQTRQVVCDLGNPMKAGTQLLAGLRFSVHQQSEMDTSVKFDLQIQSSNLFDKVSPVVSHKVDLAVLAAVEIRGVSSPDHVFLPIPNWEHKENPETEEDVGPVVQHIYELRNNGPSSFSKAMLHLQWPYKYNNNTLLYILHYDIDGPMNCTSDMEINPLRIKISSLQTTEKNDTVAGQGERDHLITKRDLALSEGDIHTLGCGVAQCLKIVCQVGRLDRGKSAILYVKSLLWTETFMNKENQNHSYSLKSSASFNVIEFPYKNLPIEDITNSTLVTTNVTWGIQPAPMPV
T3 sequence (P18564 22-707 limits assumed, chain 2 of 2): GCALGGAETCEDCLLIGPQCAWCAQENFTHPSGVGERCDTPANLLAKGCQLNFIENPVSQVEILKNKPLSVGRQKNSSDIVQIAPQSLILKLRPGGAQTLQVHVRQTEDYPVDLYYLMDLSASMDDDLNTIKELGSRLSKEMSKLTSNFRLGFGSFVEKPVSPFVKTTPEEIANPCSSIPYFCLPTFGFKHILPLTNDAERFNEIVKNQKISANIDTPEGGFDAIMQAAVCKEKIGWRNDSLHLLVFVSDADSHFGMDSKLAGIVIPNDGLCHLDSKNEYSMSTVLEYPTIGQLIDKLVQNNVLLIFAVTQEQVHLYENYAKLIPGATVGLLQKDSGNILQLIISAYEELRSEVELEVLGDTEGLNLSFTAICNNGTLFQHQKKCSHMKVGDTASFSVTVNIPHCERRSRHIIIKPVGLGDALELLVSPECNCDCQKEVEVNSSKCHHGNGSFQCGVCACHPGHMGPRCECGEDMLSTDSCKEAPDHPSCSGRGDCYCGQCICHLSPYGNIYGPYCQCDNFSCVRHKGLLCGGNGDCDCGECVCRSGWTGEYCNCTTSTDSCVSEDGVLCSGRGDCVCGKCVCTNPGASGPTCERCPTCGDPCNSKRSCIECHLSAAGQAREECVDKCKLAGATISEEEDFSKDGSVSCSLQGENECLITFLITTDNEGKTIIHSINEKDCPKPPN
T1 sequence (P06756 31-992 limits assumed, chain 1 of 2): as the sequence (P06756 31-992 limits assumed, chain 1 of 2) above
T1 sequence (P26012 43-684 limits assumed, chain 2 of 2): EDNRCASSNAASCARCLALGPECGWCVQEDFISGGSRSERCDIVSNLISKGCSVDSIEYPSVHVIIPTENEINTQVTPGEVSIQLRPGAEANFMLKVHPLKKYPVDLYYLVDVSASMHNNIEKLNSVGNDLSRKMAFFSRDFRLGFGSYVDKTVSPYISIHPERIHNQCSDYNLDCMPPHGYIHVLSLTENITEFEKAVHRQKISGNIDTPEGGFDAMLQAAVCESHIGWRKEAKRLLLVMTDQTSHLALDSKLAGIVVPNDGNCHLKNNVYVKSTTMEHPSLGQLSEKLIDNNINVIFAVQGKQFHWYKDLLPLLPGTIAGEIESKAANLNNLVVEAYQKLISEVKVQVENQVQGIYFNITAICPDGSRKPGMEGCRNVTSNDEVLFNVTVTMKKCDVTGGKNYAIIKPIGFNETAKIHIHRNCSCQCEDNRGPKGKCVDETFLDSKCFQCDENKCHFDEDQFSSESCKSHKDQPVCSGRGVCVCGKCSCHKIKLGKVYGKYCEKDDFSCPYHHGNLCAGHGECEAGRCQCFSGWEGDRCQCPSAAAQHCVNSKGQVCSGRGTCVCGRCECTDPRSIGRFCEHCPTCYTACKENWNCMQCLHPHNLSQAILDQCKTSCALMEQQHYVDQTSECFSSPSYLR
Sequence of recombinant integrin αvβ1 (P06756 31-992 limits assumed, chain 1 of 2): as the sequence (P06756 31-992 limits assumed, chain 1 of 2) above
Sequence of recombinant integrin αvβ1 (P05556 21-728 limits assumed, chain 2 of 2): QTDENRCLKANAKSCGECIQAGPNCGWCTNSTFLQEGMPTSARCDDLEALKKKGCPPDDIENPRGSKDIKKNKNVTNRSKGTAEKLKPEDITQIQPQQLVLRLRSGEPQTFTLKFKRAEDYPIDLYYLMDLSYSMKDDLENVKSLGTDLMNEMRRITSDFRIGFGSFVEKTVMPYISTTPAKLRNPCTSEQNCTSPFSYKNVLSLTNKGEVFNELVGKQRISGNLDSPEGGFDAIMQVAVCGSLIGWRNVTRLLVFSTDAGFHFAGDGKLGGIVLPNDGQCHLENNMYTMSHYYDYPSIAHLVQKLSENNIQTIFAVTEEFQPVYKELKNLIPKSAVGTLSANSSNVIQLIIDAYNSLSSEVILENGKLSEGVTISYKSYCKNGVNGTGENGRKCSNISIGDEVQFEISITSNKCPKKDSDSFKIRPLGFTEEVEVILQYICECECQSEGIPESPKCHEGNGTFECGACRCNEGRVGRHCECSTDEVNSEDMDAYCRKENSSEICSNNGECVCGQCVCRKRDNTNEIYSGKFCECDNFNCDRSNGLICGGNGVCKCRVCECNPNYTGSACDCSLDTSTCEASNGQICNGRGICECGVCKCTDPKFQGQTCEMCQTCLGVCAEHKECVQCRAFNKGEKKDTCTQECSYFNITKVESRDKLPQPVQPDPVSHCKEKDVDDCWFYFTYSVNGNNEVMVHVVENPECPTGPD

B1: C6D4 IgG 2a (antibody, V domains shown)
VH: QIQLVQSGPELKKPGETVKISCKASGYTFTDYSMHWVKQAPGKGLKWVARINTETGEPTFADDFRGRFAVSLETSASTAYLQINNLKNEDTATYFCAIFYYGRDSWGQGTTLTVSS
VL: DIVMTQSPSSLAVSAGEKVTMSCKSSQSLLNSRTRKNYLAWYQQKPGQSPRLLIYWASTRESGVPDRFTGSGSGTDFTLTISSVQAEDLAVYYCKQSYNLLSFGAGTKLELKR
notes: IgG2a
With B1, the Kd in [1] stood at 1.3 nM.

B2: antibody with heavy chain with the C6 VH1 (D to K) mutation expressed with light chain D4 (antibody, V domains shown)
VH: QIQLVQSGAEVKKPGASVKISCKASGYTFTKYSMHWVRQAPGQGLEWVARINTETGEPTFADDFRGRFTVTLDTSTSTAYLEIRSLRSDDTAVYFCAIFYYGRDTWGQGTTLTVSS
VL: EIVMTQSPATLSVSPGERVTMSCKSSQSLLNSRSRKNYLAWYQQKPGQAPRLLIYWASTRESGVPARFSGSGSGTEFTLTISSVQSEDFAVYYCKQSYNLLSFGQGTVLEIKR
notes: Single mutant of HuC6D4
B2 had a Kd in assay [2] of 2.5 nM. Also, the binding result in assay [3], in assay [4], in assay [5] and in [6] was “no binding” in each case.

B3: C6-TGFβ1RGD (antibody, V domains shown)
VH: QIQLVQSGAEVKKPGASVKISCKASGYTFTDYSMHWVRQAPGQGLEWVARINTETGEPTFADDFRGRFTVTLDTSTSTAYLEIRSLRSDDTAVYFCAIFYYGRDTWGQGTTLTVSS
VL: EIVMTQSPATLSVSPGERVTMSCKSSQSLLRRGDLATIHGNALAWYQQKPGQAPRLLIYWASTRESGVPARFSGSGSGTEFTLTISSVQSEDFAVYYCKQSYNLLSFGQGTVLEIKR
notes: also called C6-TGF-TGFβ1RGD
In the case of B3, in [7], the binding result is on record as “binds”.

B4: fully human C6D4 F12 (version of huC6D4F12 where CH1-3 were all human) (antibody, V domains shown)
VH: QIQLVQSGAEVKKPGASVKISCKASGYTFTKYSMHWVRQAPGQGLEWVARINTETGEPTFADDFRGRFTVTLDTSTSTAYLEIRSLRSDDTAVYFCAIFYYGRDTWGQGTTLTVSS
VL: EIVMTQSPATLSVSPGERVTMSCKSSQSLLHSRSRKNYLAWYQQKPGQAPRLLIYWASTRESGVPARFSGSGSGTEFTLTISSVQSEDFAVYYCKQSYNLLSFGQGTVLEIKR
Turning to B4, the “IC50 (read off the curve)” value in assay [8] was about 0.1 µg/mL.

B5: HuC6D4F12 (antibody, V domains shown)
VH: QIQLVQSGAEVKKPGASVKISCKASGYTFTKYSMHWVRQAPGQGLEWVARINTETGEPTFADDFRGRFTVTLDTSTSTAYLEIRSLRSDDTAVYFCAIFYYGRDTWGQGTTLTVSS
VL: EIVMTQSPATLSVSPGERVTMSCKSSQSLLHSRSRKNYLAWYQQKPGQAPRLLIYWASTRESGVPARFSGSGSGTEFTLTISSVQSEDFAVYYCKQSYNLLSFGQGTVLEIKR
notes: Whole antibody; also called HC6D4F12; HuC6D412
Consider B5, for which, in [9], the binding result is reported as “no binding”. In addition, the Kd in assay [10] came to 1.4 nM; in assay [1], 0.00236 nM; in assay [2] it was 3.1 nM. In assay [11], the “IC50 of inhibition of TGF-β activation (TMLC reporter cells expressing TGF-β1/GARP on immobilized αvβ8)” value turned out to be 0.75 µg/mL. For the same molecule, the “inhibition of TGF-β activation (immobilized αvβ8 at 1 µg/ml and TGF-β1/GARP expressing TMLC reporter cells); fold against ADWA11 2.4” value in assay [12] is about 77 fold.

B6: antibody with light chain D4 VL1 (N to H) mutation expressed with heavy chain C6 (antibody, V domains shown)
VH: QIQLVQSGAEVKKPGASVKISCKASGYTFTDYSMHWVRQAPGQGLEWVARINTETGEPTFADDFRGRFTVTLDTSTSTAYLEIRSLRSDDTAVYFCAIFYYGRDTWGQGTTLTVSS
VL: EIVMTQSPATLSVSPGERVTMSCKSSQSLLHSRSRKNYLAWYQQKPGQAPRLLIYWASTRESGVPARFSGSGSGTEFTLTISSVQSEDFAVYYCKQSYNLLSFGQGTVLEIKR
notes: Single mutant of HuC6D4
Consider B6, for which the Kd in assay [2] came to 4.7 nM. For the same molecule, the binding result in assay [3], in assay [4], in assay [5] and in assay [6] was “no binding” in each case.

B7: HuC6D4 (antibody, V domains shown)
VH: QIQLVQSGAEVKKPGASVKISCKASGYTFTDYSMHWVRQAPGQGLEWVARINTETGEPTFADDFRGRFTVTLDTSTSTAYLEIRSLRSDDTAVYFCAIFYYGRDTWGQGTTLTVSS
VL: EIVMTQSPATLSVSPGERVTMSCKSSQSLLNSRSRKNYLAWYQQKPGQAPRLLIYWASTRESGVPARFSGSGSGTEFTLTISSVQSEDFAVYYCKQSYNLLSFGQGTVLEIKR
notes: Whole antibody; also called Human C6D4; Humanized C6D4
As for B7, the Kd came to 0.0821 nM in [1] and 4.9 nM in assay [2].

B8: ADWA11 2.4 (chimeric version: humanized variable domains and CH1, murine IgG2a CH2/CH3) (antibody, V domains shown)
VH: EVQLVESGGGLVQPGGSLRLSCAASGFNIKDYYMNWVRQAPGKGLEWVGWIDPDQGNTIYEPKFQGRFTISADTSKNSAYLQMNSLRAEDTAVYYCARRLLMDYWGQGTLVTVSS
VL: DIQMTQSPSSLSASVGDRVTITCRSTKSLSHFNGNTYLFWYQQKPGKAPKRLIYYMSSLASGVPSRFSGSGSGTDFTLTISSLQPEDFATYYCQQSLEYPFTFGGGTKVEIKR
Take B8: the Kd in [10] was determined as 26.3 nM. Moreover, the “IC50 of inhibition of TGF-β activation (TMLC reporter cells expressing TGF-β1/GARP on immobilized αvβ8)” value in assay [11] was determined as 57.7 µg/mL.
